Measured values as given in US20250034271A1 (EUCURE BEIJING BIOPHARMA, published 2025).

T1: mouse CD40 (mCD40) on transfected CHO cells (mouse, UniProt P27512 20-289)
T1 sequence: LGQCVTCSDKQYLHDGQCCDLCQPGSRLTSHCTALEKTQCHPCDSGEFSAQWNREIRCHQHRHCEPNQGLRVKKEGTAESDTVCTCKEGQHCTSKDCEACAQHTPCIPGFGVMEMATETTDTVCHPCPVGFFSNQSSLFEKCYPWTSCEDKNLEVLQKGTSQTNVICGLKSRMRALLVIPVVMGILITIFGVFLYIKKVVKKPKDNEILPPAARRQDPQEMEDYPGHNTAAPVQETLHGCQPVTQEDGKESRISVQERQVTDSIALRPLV

T2: monkey (rhesus macaque) CD40 (rmCD40) on transfected CHO cells (rhesus macaque, UniProt P25942 21-277 (human entry))
T2 construct: also called monkey CD40
T2 chain: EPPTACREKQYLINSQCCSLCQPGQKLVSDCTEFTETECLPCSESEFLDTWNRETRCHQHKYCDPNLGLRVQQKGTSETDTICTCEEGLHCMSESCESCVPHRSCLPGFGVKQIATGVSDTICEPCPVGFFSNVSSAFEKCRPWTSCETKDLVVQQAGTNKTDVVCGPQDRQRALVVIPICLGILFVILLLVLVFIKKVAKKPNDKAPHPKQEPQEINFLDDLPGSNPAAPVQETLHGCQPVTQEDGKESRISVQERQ


Tests used:
[1] = target: T1, mouse CD40 (mCD40) on transfected CHO …; test: flow cytometry, CHO-mCD40 cells, anti-mIgG Fc-FITC
Procedure: (§1) 25 μl CHO cells were added to each well. 25 μl purified anti-hCD40 antibodies (1 μg/ml) (7F10, 6A7, or 4H6) were added to each well and were incubated at 4° C. for 30 minutes.
(§2) After being washed with PBS (1200 rmp, 5 min) twice, 50 μl of FITC labeled anti-mouse IgG Fc antibody (anti-mIgG Fc-FITC) was added into each well 1:100 dilution, followed by incubated at 4° C. for 30 minutes, and then PBS wash (1200 rmp, 5 min). The signals for FITC were detected by flow cytometry.

[2] = target: T1, mouse CD40 (mCD40) on transfected CHO …; test: flow cytometry, CHO-mCD40 cells, antibody 1 µg/ml, anti-mIgG Fc-FITC; x: Anti-mouse-IgG-Fc-FITC, y: SSC-H
Procedure: as §1, §2

[3] = target: T2, monkey (rhesus macaque) CD40 (rmCD40) …; test: flow cytometry, CHO-rmCD40 cells, antibody 1 µg/ml, anti-mIgG Fc-FITC; x: Anti-mouse-IgG-Fc-FITC, y: SSC-H
Procedure: as §1, §2

[4] = target: T3, chimeric (mouse and human) CD40 (chiCD40) on transfected CHO cells (chimeric (mouse and human)); test: flow cytometry, CHO-chiCD40 cells, antibody 1 µg/ml, anti-mIgG Fc-FITC; x: Anti-mouse-IgG-Fc-FITC, y: SSC-H
T3 construct: also called human-mouse chimeric CD40; chimeric CD40
Procedure: as §1, §2

[5] = target: T4, human CD40 (hCD40) on transiently transfected CHO cells (human, UniProt P25942 21-277); test: flow cytometry, CHO cells with hCD40, antibody titrated then hCD40L-hFc added (blocked ligand: hCD40L-hFc); y: hCD40 Ligand-hFc, x: Anti-mouse-IgG-Fc-PE
T4 construct: also called TNF Receptor Superfamily Member 5; TNFRSF5
Procedure: The anti-hCD40 antibodies were collected from mouse ascites fluid and purified by chromatography. 25 μl CHO cells transiently transfected with human CD40 were added to each well in a plate. The purified antibodies were titrated to final concentrations of 50, 5, 0.5, 0.05, and 0.005 μg/ml. The titrated antibodies were added to each well at 25 μl per well at 4° C. and incubated for 30 minutes.
hCD40 ligand-hFc was expressed by H293T cells. 50 μl of hCD40L-hFc was added to each well (1:500). The cells with hCD40L-hFc and the antibodies were incubated at 4° C. for 15 minutes.
After being washed with phosphate-buffered saline (PBS) twice, 50 μl of PE labeled anti-mouse IgG Fc antibody (anti-mIgG Fc-PE) at 1:500 dilution and FITC-labeled anti-human IgG Fc antibody (anti-hIgG Fc-FITC) at 1:100 dilution were added into each well, and incubated for 30 minutes at 4° C., followed by PBS wash. The signals for FITC and PE were determined by flow cytometry.

| Binder | binding result [1] | % cells in the Anti-mouse-IgG-Fc-FITC positive gate [2] | % cells in the Anti-mouse-IgG-Fc-FITC positive gate [3] | % cells in the Anti-mouse-IgG-Fc-FITC positive gate [4] | % cells lower left (ligand- / antibody-) at 0.005µg/mL [5] | % cells lower left (ligand- / antibody-) at 0.05µg/mL [5] | % cells lower left (ligand- / antibody-) at 0.5µg/mL [5] | % cells lower left (ligand- / antibody-) at 5µg/mL [5] | % cells lower left (ligand- / antibody-) at 50µg/mL [5] | % cells lower right (ligand- / antibody+) at 0.005µg/mL [5] | % cells lower right (ligand- / antibody+) at 0.05µg/mL [5] | % cells lower right (ligand- / antibody+) at 0.5µg/mL [5] | % cells lower right (ligand- / antibody+) at 5µg/mL [5] | % cells lower right (ligand- / antibody+) at 50µg/mL [5] | % cells upper left (ligand+ / antibody-) at 0.005µg/mL [5] | % cells upper left (ligand+ / antibody-) at 0.05µg/mL [5] | % cells upper left (ligand+ / antibody-) at 0.5µg/mL [5] | % cells upper left (ligand+ / antibody-) at 5µg/mL [5] | % cells upper left (ligand+ / antibody-) at 50µg/mL [5] | % cells upper right (ligand+ / antibody+) at 0.005µg/mL [5] | other results |
| --- | --- | --- | --- | --- | --- | --- | --- | --- | --- | --- | --- | --- | --- | --- | --- | --- | --- | --- | --- | --- | --- |
| mouse anti-hCD40 antibody 07-4H6 (antibody, V domains shown, Mouse antibody purified from ascites) VH: EVKLQESGPSLVKPSQTLSLTCSVTGDSVSSGYWNWIRKFPGNKLEYMGFISYSGSTYYTPSLKSRISITRDTSKNQFYLQLNSVTTEDTATYFCARFRRYDDGVDYWGQGTTLTVSS VL: DIQMTQSPSSLSASLGERVSLTCRASHEISGYLSWIQQKPDGTIKRLINAASTLASGVPKRFSGSRSGSEYSLTINSLESEDFADYYCLQYSSYPWTFGGGTKLEIK | no binding | 1.56% | 88.5% | 87.8% | 35.7% | 16.8% | 11.1% | 11.4% | 7.76% | 3.7% | 26.9% | 63.6% | 80.8% | 83.7% | 1.95% | 0% | 0% | 0% | 0.185% | 58.7% | % cells upper right (ligand+ / antibody+) at 0.05µg/mL [5]: 56.4%; % cells upper right (ligand+ / antibody+) at 0.5µg/mL [5]: 25.4%; % cells upper right (ligand+ / antibody+) at 5µg/mL [5]: 7.75%; % cells upper right (ligand+ / antibody+) at 50µg/mL [5]: 8.32% |
| mouse anti-hCD40 antibody 06-6A7 (antibody, V domains shown, Mouse antibody purified from ascites) VH: QVQLQQPGAELVKPGASVKLSCKASGYTFISYYIYWVKQRPGQGLEWIGGINPRNGGTNFNEKFKSKATLTVDKSSSTAYMQLSSLTSEDSAVYYCTRHGNGVYWGQGTTLTVSS VL: DVVMTQTPLSLPVSLGDQASISCRSSQSLLHSNGNTYLHWYLQKPGQSPNHLIYQVSNRFSGVPDRFSGSGSGTDFTLKISRVEAEDLGVYFCSQTTHVPWTFGGGTKLEIK | no binding | 1.16% | 96.4% | 94.6% | 41.2% | 14.9% | 3.18% | 6.37% | 7.92% | 4.1% | 31.6% | 45.1% | 67.8% | 69.7% | 1.44% | 0% | 0% | 0% | 0.108% | 53.2% | % cells upper right (ligand+ / antibody+) at 0.05µg/mL [5]: 53.5%; % cells upper right (ligand+ / antibody+) at 0.5µg/mL [5]: 51.7%; % cells upper right (ligand+ / antibody+) at 5µg/mL [5]: 25.9%; % cells upper right (ligand+ / antibody+) at 50µg/mL [5]: 22.3% |
| mouse anti-hCD40 antibody 03-7F10 (antibody, V domains shown, Mouse antibody purified from ascites) VH: EVKLVESGGGLVQPGGSLKLSCATSGFTFSDYYMYWVRQTPEKRLEWVAYISYGGDSTFYPDTVRGRFTISRDNAKNALYLQMSRLKSEDTAVYYCARPAPSAHSYYLDYWGQGTTLTVSS VL: DIQMTQTTSSLSASLGDRVTISCRASQDISNYLNWYQQKPDGTVKLLIYYTSRLHSGLPSRFSGSGSGTDYSLTISNLEQEDIATYYCQQGKTLPFTFASGTKLEIK | no binding | 0.674% | 82.6% | 82.4% | 42.7% | 9.95% | 7.02% | 12.9% | 12.8% | 1.99% | 32.1% | 47.7% | 78.8% | 78.1% | 4.03% | 0% | 0.056% | 0% | 0% | 51.3% | % cells upper right (ligand+ / antibody+) at 0.05µg/mL [5]: 57.9%; % cells upper right (ligand+ / antibody+) at 0.5µg/mL [5]: 45.2%; % cells upper right (ligand+ / antibody+) at 5µg/mL [5]: 8.35%; % cells upper right (ligand+ / antibody+) at 50µg/mL [5]: 9.09% |
